{"source": "paper doi:10.1101/2020.12.10.419135", "target": "Recombinant human glutamine synthetase (GS) (human) (UniProt P15104)", "sequence (P15104 whole entry)": "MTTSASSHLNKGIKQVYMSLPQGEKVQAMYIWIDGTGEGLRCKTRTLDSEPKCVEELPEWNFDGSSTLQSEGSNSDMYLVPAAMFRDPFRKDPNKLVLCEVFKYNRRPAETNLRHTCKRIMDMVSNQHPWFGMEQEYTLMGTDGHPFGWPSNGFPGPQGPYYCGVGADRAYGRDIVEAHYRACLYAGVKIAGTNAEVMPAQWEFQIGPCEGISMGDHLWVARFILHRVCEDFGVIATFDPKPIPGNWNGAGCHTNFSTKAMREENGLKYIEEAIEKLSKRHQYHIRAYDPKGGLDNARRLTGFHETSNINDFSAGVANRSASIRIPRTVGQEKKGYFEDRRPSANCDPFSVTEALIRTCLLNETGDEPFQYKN", "assay": "MST", "data": [{"substance": "contryphan-Bt (peptide)", "values": [{"measurement": "Kd", "result": 74, "unit": "µM"}]}]}
